This note sets out measurements from the nanobody polyreactivity screen of Harvey et al. (2022).

The data set in a line: yeast display, Sf9 membrane polyspecificity reagent, FACS + sequencing; frameworks hold sequencing errors. In a few lines:
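Polyreactivity labels are assigned by the sorting gate from which each nanobody was recovered. The gates were low and high (top ~1%), set on anti-HA fluorescence for expression and streptavidin fluorescence for reagent binding. Before sorting, galactose-induced (36–48 hours) yeast display cells were stained for 1 hour at 4 °C with 10% biotinylated, detergent-solubilized Sf9 membrane reagent.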
Regarding “QVQLVESGGGLVQAGGSLRLSCAASGSIFDNYAMGWYRQAPGKEREFVAGISWSGGSTRYADSVKGRFTISRDNAKNTVYLQMNSLKPEDTAVYYCNTGYGLVDFLYGYYYWGQGTQVTVSS”, the “polyreactivity (PSR sort gate)” value is recorded as “low polyreactivity”.
For “QVQLVESGGGLVQAGGSLRLSCAASGSIFDPNAMGWYRQAPGKERELLADIDSSDGSTYYADSVKGRFTISRDNAKNTVYLQMNSLKPEDTAVYYCNARYGGWVWSTYDHWGQGTQVTVSS” the value was “low polyreactivity”; for “QVQLVESGGGLVQAGGSLRLSCAASGSIFDPNAMGWYRQAPGKERELVANITNGGRTNYADSVKGRFTISRDNAKNTVYLQMNSLKPEDTAVYYCAKDSPFTSVTVLAPIIYDSWGQGTQVTVSS”, “low polyreactivity”.
Take “QVQLVESGGGLVQAGGSLRLSCAASGSIFDPYAMGWSRQAPGKEREFVAAISYSAGSTYYADSVKGRFTISRDNAKNTVYLQMNSLKPEATAVYYCAARYTHTSPSIRSWAYYYWGQGTQVTVSS”: the “polyreactivity (PSR sort gate)” value is recorded as “high polyreactivity”.
For “QVQLVESGGGLVQAGGSLRLSCAASGSIFDPYAMGWYRQAPGKERELVAGISFSGGRTYYADSVKGRFTISRDNAKNTVYLQMNSLKPEDTAVYYCNKLLTQGAYPYYFWGQGTQVTVSS” the value was “high polyreactivity”; for “QVQLVESGGGLVQAGGSLRLSCAASGSIFDPYAMGWYRQAPGKERELVAVINDGGRTTYADSVKGRFTISRDNAKNTVYLQMNSLKPEDTAVYYCAATYYFSRWDLFGYWGQGTQVTVSS”, “low polyreactivity”.
For “QVQLVESGGGLVQAGGSLRLSCAASGSIFDRNAMGWYRQAPGKERELVAAITSGGSTYYADSVKGRFTISRDNAKNTVYLQMNSLKAEDTAVYYCNADADPPVPLYYWGQGTQVTVSS” the value was “low polyreactivity”; for “QVQLVESGGGLVQAGGSLRLSCAASGSIFDRNAMGWYRQAPGKERELVAAITSGGSTYYADSVKGRFTISRDNAKNTVYLQMNSLKPEDTGVYYCNADADPPVPLYYWGQGTQVTVSS”, “low polyreactivity”; for “QVQLVESGGGLVQAGGSLRLSCAASGSIFDRNAMGWYRQAPGKERELVATITWSGVSTYYADSVKGRFTISRDNAKNTVYLQMNSLKPEDTAVYYCNADYSYRHWYDPGQYGQAMGYWGLGTQVTVSS”, “low polyreactivity”.
For “QVQLVESGGGLVQAGGSLRLSCAASGSIFDRYALGWYRQAPGKERELVAAISTGGSTNYADSVKGRFTISRDNAKNTVYLQMNSLKPEDTAVYYCAAERYWVFHGTISYKYDYWGQGSQVTVSS” the value was “low polyreactivity”; for “QVQLVESGGGLVQAGGSLRLSCAASGSIFDSYVMGCYRQAPGTERELVAAITYSGGSTYADSVKGRFTISRDNAKNTVYLQMNSLKPEDTAVYYCAADYYRGRYSYRYDYWGQGTQVTVSS”, “low polyreactivity”; for “QVQLVESGGGLVQAGGSLRLSCAASGSIFDSYVMGWYRQAPGKERELVAAITYSGGSTYADSVKGRFTISRDNAKNTVYLQMNSLKPEDTAVYYCAAASYFYLYLLEDYWGQGTQVTVSS”, “low polyreactivity”.
On to “QVQLVESGGGLVQAGGSLRLSCAASGSIFDVNAMGWYRQAPGKERELVAAISDSGGSTYYADSVKGRFTISRDNAKNTVYLQMNSLKPEDTAVYYCNADWYWYNYYDFDYWGQGTQVTVSS”, for which the “polyreactivity (PSR sort gate)” value is reported as “low polyreactivity”.
As to “QVQLVESGGGLVQAGGSLRLSCAASGSIFDVNAMGWYRQAPGKERELVAAISDSGGSTYYADSVKGRYTISRDNAKNTVYLQMNSLKPEDTAVYYCNADWSWYNYYDFDYWGQGTQVTVSS”, the “polyreactivity (PSR sort gate)” value was “low polyreactivity”.
For “QVQLVESGGGLVQAGGSLRLSCAASGSIFDVNAMGWYRQAPGKERELVAAISDSTTSTYYADSVKGRFTISRDNAKNTVYLQMNSLKPEDTAVYYCNTPGLPIDSEYDYWGQGTQVTVSS” the value was “low polyreactivity”; for “QVQLVESGGGLVQAGGSLRLSCAASGSIFDVNAMGWYRQAPGKERELVAAISQRGTRTYYADSVKGRFTISRDNAKNTVYLQMNSLKAEDTAVYYCNRGGWRQYDSWGQGTQVTVSS”, “high polyreactivity”.
As for “QVQLVESGGGLVQAGGSLRLSCAASGSIFDVNPMGWYRQAPGKERELVAAISQRGTRTYYADSVKGRFTISRDNAKNTVYLQMNSLKPEDTAVYSCNRGGWRQYDSWGQGTQVTVSS”, the entry is “high polyreactivity”.
For the sequence “QVQLVESGGGLVQAGGSLRLSCAASGSIFDVNTMGWYRQAPGKERELVAAISRGGSTNYADSVKGRFTISRDNAKNTVYLQMNSLKPEDTAVYYCNKRYQNQYDYWGQGTQVTVSS”, the “polyreactivity (PSR sort gate)” value is “low polyreactivity”.
“QVQLVESGGGLVQAGGSLRLSCAASGSIFDVNTMGWYRQAPGKERELVAAITNGDRTNYADSVKGRFTISRDNAKNTVYLQMNSLKPEDTAVYYCNTDQGTTSDYGYWGQGTQVTVSS”: the “polyreactivity (PSR sort gate)” value is on record as “low polyreactivity”.
As for “QVQLVESGGGLVQAGGSLRLSCAASGSIFDVYAMGWYRQAPGKERELVAAITFSGGSTYYADSVKWRFTISRDNAKNTVYLQMNSLNPEDTAVYYCSVSRSYLYPVYGYYTWLGDYWGQGTQVTVSS”, the entry is “low polyreactivity”.
As for “QVQLVESGGGLVQAGGSLRLSCAASGSIFDVYAMGWYRQAPGQERELVAAISRGDSTNYADSVKGRFTISRDNAKNTVYLQMNSLKPEDTAVYYCAADCYYWGSGWRYDSWGQGTQVTVSS”, the entry is “low polyreactivity”; as for “QVQLVESGGGLVQAGGSLRLSCAASGSIFDVYTMGWSRQAPGKERELVAAISKRSGRTYYADSVKGRFTISRDNAKNTVYLQMNSLKPEDTAVYYCAARGYPTTAVTYDYWGQGTQVTVSS”, “low polyreactivity”; as for “QVQLVESGGGLVQAGGSLRLSCAASGSIFDVYTMGWYRPAPGKERELVAAISWSGGSTFYADSVKGRFTISRDNAKNTVYLQMNSLKPEDTAVYYCAAELSLGNYWYDFWGQGTQVTVSS”, “high polyreactivity”.
Consider “QVQLVESGGGLVQAGGSLRLSCAASGSIFDVYVMGWYRQAPGKERELVAAITSTGSTNYADSVKGRFTISRDNAKNTVYLQMNSLKPEDTAVYYCATDGVYKHIQVLYDYWGQGTQVTVSS”, for which the “polyreactivity (PSR sort gate)” value is “low polyreactivity”.
For “QVQLVESGGGLVQAGGSLRLSCAASGSIFDWNGMGWYRQAPGKERELVAAITWRGGRTYYADSVKGRFTISRDNAKNTVYLQMNSLKPEDTAVYYCAATRFFYSRYNYWGQGTQVTVSS” the value was “high polyreactivity”; for “QVQLVESGGGLVQAGGSLRLSCAASGSIFDWYVMGWYRQAPGKERELVAAITSGGSTNYADSVKGRFTISRDNAKNTVYLQMNSLKPEDTAVYFCAADTVSFSILYDYWGQGTQVTVSS”, “low polyreactivity”.
For “QVQLVESGGGLVQAGGSLRLSCAASGSIFDYNAMGWNRQAPGKDRELVAAISSGGSTYYADSVKGRFTISRDNAKNTVYLQMNSLKPEDTAVYYCAVKFWMVIQFDYWGQGTQVTVSS” the value was “low polyreactivity”; for “QVQLVESGGGLVQAGGSLRLSCAASGSIFDYNAMGWYRQAPGKEREFVAAISSSAGSTYYADSVKGRFTISRDNAKNTVYLEMNSLKPEDTAVYYCAADWYDFSFPYYEYEYWGQGTQVTVSS”, “low polyreactivity”.
As for “QVQLVESGGGLVQAGGSLRLSCAASGSIFDYNAMGWYRQAPGKEREFVAAISSSAGSTYYADSVKGRFTISRDNAKNTVYLQMNSLKPEDTAVYYCAARYQSPFRTYRFGMDYWGQGTQVTVSS”, the entry is “low polyreactivity”; as for “QVQLVESGGGLVQAGGSLRLSCAASGSIFDYNAMGWYRQAPGKERELVAAISRSGGSTYYADSVKGRFTISRDNAKNTVYLQMNSLKPEDTAVYYCAALPSRPRGYDYWGHGTQVTVSS”, “high polyreactivity”.
With “QVQLVESGGGLVQAGGSLRLSCAASGSIFDYNAMGWYRQAPGKERELVASISGDSGSTYYADSVKGRFTISRDNAKNTDYLQMNSLKPEDTAVYYCAAPYVSWDYRYYYWGQGTQVTLSS”, the “polyreactivity (PSR sort gate)” value is given as “low polyreactivity”.
For the sequence “QVQLVESGGGLVQAGGSLRLSCAASGSIFDYNTMGWYRQAPGKERELVAAISSGGSTYYADSVKGRFTISRDNAKNTVYLQMNSLKPEDTAVYYCAARRAGWWGFYYWGQATQVTVSS”, the “polyreactivity (PSR sort gate)” value is “high polyreactivity”.
As for “QVQLVESGGGLVQAGGSLRLSCAASGSIFDYTAMGWYRQAPGKERELVASIRWSGGRTYYADSVKGRFTISRDNAKNTVYLQMNSLKPEDTAVYYCNRKPQEYVLQGSSNGYDYWGQGTQVTVSS”, the entry is “low polyreactivity”; as for “QVQLVESGGGLVQAGGSLRLSCAASGSIFDYYALGWYRQAPGKERELVATITSGVSTYYADSVKGRFTISRDNAKNTVYLQMNSLKPEDTAVYYCARDYAKSQDLYKYDYWGQGTQVTLSS”, “low polyreactivity”; as for “QVQLVESGGGLVQAGGSLRLSCAASGSIFDYYAMGWYRPAPVKERELVAAISDSGSTYYADSVKGRFTISRDNAKNTVYLQMNSLKPEDTAVYYCAAVLWSPYLSEPLETYEYWGQGTQVTVSS”, “low polyreactivity”.
As for “QVQLVESGGGLVQAGGSLRLSCAASGSIFDYYAMGWYRQAPGKERELVAAISRSGTTNYADSVKGRFTISRDNAKNTVYFQMNSLKPEDTAVYYCNARTRGYRYTSALYYWGQGTQVTVSS”, the entry is “high polyreactivity”.
For “QVQLVESGGGLVQAGGSLRLSCAASGSIFDYYAMGWYRQAPGKERELVAAISTSTSSTYYADSVKGRFTISRDNAKNTVYLQMNSLKPEDTAVYYCAAEGESQPESPGYDYWGQGTQVTVSS” the value was “low polyreactivity”; for “QVQLVESGGGLVQAGGSLRLSCAASGSIFDYYTMGWYRQAPGKERELVASITRDGTSTYYADSVKGRFTISRDNAKNTVYLQMNSLKPEDTAVYYCAAERYGFTYSFYYWGQGTQVTVSS”, “low polyreactivity”; for “QVQLVESGGGLVQAGGSLRLSCAASGSIFDYYVMGWYRQSPGKERELVAAISLSGGSTYYADSVKGRFTISRDNAKNTVYLQMNSLKPEDTAVYYCNADSQWYDYDYWGQGTQVTVSS”, “high polyreactivity”.
Regarding “QVQLVESGGGLVQAGGSLRLSCAASGSIFEGNAMGWYRQAPGKERELVAAISTTGGITYYADSVKGRFTISRDNAKNTVFLQMNSLKPEDTAVYYCAADPSQPRIDSSNYDYWGQGTQVTLSS”, the “polyreactivity (PSR sort gate)” value was “low polyreactivity”.
As for “QVQLVESGGGLVQAGGSLRLSCAASGSIFEGNGMGRYRQAPGKERELVAAITFRSGSTYYADSVKGRFTISRDNAKNTVYLQMNSLKPEDTAVYYCAADEYYQVSAYDYWGQGTQVNVSS”, the entry is “low polyreactivity”.
